What was measured:
[1] = target: endogenous cell-associated gp-340 on human cell lines (AGS, VK2E6E7, Endo1E6E7, Ect1E6E7, HEC1A, untransfected 293) and human vaginal and cervical tissue (human) (UniProt Q9UGM3); assay: cell-based or functional assay
[2] = target: full length gp-340 (exon 1-54) expressed on the surface of 293 cells transfected with pDEST-DMBT1 (clone 1D4) (UniProt Q9UGM3); assay: cell-based or functional assay
Chain of full length gp-340 (exon 1-54) expressed on the surface of 293 cells transfected with pDEST-DMBT1 (clone 1D4) (Q9UGM3 20-2413 limits assumed, change not shown): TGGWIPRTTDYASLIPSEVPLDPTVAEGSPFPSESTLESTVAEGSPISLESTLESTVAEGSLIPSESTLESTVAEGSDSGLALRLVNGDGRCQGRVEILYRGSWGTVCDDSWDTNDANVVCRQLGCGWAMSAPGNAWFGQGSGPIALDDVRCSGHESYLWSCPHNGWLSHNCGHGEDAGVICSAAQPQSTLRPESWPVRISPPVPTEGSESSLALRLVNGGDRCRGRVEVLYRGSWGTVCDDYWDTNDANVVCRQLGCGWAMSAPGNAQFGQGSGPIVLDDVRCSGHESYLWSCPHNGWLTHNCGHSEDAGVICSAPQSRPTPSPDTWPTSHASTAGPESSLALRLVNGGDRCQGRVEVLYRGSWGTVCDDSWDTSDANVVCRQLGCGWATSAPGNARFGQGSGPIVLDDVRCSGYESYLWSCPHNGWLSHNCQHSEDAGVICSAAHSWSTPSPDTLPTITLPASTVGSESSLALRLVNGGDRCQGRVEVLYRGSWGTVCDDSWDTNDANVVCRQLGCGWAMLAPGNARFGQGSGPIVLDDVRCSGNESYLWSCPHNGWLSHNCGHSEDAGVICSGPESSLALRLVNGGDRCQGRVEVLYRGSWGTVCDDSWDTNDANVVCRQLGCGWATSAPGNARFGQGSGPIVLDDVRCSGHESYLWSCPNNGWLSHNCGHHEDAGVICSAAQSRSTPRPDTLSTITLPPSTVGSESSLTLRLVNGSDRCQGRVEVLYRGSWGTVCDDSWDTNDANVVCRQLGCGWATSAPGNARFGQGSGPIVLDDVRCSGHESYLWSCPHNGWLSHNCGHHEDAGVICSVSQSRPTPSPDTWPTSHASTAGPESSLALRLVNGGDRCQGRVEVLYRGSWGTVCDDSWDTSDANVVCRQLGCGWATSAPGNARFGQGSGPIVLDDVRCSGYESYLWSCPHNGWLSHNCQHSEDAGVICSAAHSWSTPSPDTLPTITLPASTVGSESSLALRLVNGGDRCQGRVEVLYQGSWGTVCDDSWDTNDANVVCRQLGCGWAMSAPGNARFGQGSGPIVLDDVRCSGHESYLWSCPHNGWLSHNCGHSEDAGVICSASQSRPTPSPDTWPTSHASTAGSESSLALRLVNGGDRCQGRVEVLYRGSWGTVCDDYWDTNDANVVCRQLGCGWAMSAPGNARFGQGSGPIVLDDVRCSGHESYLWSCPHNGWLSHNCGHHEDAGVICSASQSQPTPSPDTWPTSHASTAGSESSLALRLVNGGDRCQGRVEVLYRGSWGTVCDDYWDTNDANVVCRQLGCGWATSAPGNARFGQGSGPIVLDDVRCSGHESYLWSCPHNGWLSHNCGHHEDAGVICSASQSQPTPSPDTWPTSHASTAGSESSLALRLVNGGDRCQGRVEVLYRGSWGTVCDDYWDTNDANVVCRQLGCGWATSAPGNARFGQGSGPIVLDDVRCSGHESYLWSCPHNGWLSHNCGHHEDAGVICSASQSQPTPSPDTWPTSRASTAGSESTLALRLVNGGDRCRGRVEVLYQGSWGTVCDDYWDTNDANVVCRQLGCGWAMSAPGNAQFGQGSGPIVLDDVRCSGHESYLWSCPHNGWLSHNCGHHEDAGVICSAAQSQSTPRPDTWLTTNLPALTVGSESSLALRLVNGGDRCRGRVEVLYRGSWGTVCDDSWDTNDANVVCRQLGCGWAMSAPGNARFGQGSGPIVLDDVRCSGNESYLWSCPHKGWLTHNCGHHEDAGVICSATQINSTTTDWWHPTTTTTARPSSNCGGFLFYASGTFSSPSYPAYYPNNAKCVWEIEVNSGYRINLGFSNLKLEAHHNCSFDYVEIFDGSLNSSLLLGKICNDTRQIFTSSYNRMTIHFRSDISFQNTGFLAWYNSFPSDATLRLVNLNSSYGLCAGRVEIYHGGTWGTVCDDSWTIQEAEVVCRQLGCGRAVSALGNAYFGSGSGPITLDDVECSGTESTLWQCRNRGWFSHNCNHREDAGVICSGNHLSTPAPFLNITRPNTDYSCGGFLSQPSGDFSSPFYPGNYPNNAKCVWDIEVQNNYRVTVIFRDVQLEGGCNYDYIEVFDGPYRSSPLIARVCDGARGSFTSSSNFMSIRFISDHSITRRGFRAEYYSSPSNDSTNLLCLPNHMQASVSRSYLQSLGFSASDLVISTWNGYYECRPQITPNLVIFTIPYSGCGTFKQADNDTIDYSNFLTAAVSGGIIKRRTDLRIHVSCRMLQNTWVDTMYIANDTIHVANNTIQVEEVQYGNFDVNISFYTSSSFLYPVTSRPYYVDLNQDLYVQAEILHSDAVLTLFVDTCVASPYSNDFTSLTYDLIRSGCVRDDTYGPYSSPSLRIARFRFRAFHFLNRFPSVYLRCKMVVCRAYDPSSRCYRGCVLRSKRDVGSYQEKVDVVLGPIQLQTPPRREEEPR

Chain of endogenous cell-associated gp-340 on human cell lines (AGS, VK2E6E7, Endo1E6E7, Ect1E6E7, HEC1A, untransfected 293) and human vaginal and cervical tissue (human) (Q9UGM3 20-2413): as the sequence (Q9UGM3 20-2413 limits assumed, change not shown) above

Substance: HIV-1 Env (gp120) of primary M-tropic strain BL2, on virus particles
- enhancement in viral infectivity (AGS cell trans-infection) [1]: 6 fold
- viral input at which cells were infected in 50% of the wells (AGS cell trans-infection) [1]: 0.08 IU
- TCID50 of added virus in trans-infection to PHA-blasts, gp-340 expressing 293 cells against non-exogenously expressing 293 cells [2]: 6 fold
- mean P24 in 6 wells, clone 1D4 without peptide 6284, 0.11 IU [2]: 184
- mean P24 in 6 wells, clone 1D4 without peptide 6284, 0.33 IU [2]: 239
- percentage of wells infected at 0.11 IU of HIV added (trans-infection, gp-340 expressing 293 cells) [2]: 50%
- percentage of wells infected at 0.33 IU of HIV added (trans-infection, gp-340 expressing 293 cells) [2]: 100%

— patent US20110086028A1
